According to PMC8245568, “Xyloglucan processing machinery in Xanthomonas pathogens and its role in the transcriptional activation of virulence factors” (Nature Communications, 2021):

B1: XacGalD, GH35 β-galactosidase encoded by XAC1772 of Xanthomonas citri pv. citri 306, wild type (enzyme)
chain: not shown
notes: source: E. coli, purified (two chromatographic steps)
B2: XacAfc95, GH95 α-1,2-L-fucosidase encoded by XAC1774 of Xanthomonas citri pv. citri 306 (enzyme)
chain: not shown
notes: A signal peptide was probably left out of the construct (surmise); also called GH95 α-L-fucosidase; source: E. coli, purified (two chromatographic steps)

Assays:
[1] = biological target: the molecule itself; assay: SEC-MALS; 25 °C; Superdex 200 HR 10/300 GL; 250 μL of protein at 50 μmol L^-1 injected; 20 mmol L^-1 HEPES pH 7.5, 150 mmol L^-1 NaCl
[2] = biological target: the molecule itself; assay: SAXS; protein samples at 1, 3, 5 and 10 mg mL^-1; D01A-SAXS2 beamline (LNLS); molecular weight by SAXSMoW

| Protein | stoichiometry N [1] | stoichiometry N [2] |
| --- | --- | --- |
| B1 | 4 | – |
| B2 | – | 2 |
